Where a chain is given by its changes, count along the chain named.
B1: Ab384 (antibody, V domains shown)
VH: EVQLVQSGAEVKKPGSSVKLSCKASGYTFTSYWMHWVRQAPGQGLEWIGYIKPSSGYTKYNQKFKDKATLTADKSTSTAYMELSSLRSEDTAVYYCARDYYGSSSWFAYWGQGTLVTVSS
VL: EIVMTQSPAFMSVTVGEKVTITCKASQNVGTNVAWYQQKPDQSPKALIYSASYRYSGVPSRFSGSGSGTDFTLTISSLEAEDAATYYCQQYNSYPYMYTFGQGTKLEIK
notes: humanized
B2: Ab420 (antibody, V domains shown)
VH: B1 VH
VL: EIVMTQSQATLSTSPGERATLSCKASQNVGTNVAWYQQKPGQAPRALIYSASYRYSGVPARFSGSGSGTDFTLTISSVEPEDFAVYYCQQYNSYPYMYTFGQGTKLEIK
notes: humanized
B3: Ab368 (antibody, V domains shown)
VH: B1 VH with S16A, S84R, E89D
VL: B1 VL with E1D, P8Q, S43A
notes: humanized
B4: Ab356 (antibody, V domains shown)
VH: B1 VH with S16A, S84R, E89D
VL: B1 VL with M11L, V15P, S43A
notes: humanized
B5: Ab364 (antibody, V domains shown)
VH: B1 VH with A9P, S16T, P41R, G44R, K67R
VL: B1 VL with E1D, P8Q, S43A
notes: humanized
B6: Ab357 (antibody, V domains shown)
VH: B1 VH with K12A, S16A, S84R, E89D
VL: B1 VL with M11L, V15P, S43A
notes: humanized
B7: Ab391 (antibody, V domains shown)
VH: B1 VH with E1Q, K12A, S16A, R38K, S84R, E89D
VL: B2 VL with Q8P
notes: humanized
B8: Ab370 (antibody, V domains shown)
VH: B1 VH with S16A, N61A, F64L, K65Q, D66G, K67R, A68V, S84R, E89D
VL: B1 VL with E1D, P8Q, S43A
notes: humanized
B9: Ab369 (antibody, V domains shown)
VH: B1 VH with K12A, S16A, S84R, E89D
VL: B1 VL with E1D, P8Q, S43A
notes: humanized
B10: Ab382 (antibody, V domains shown)
VH: B1 VH with S16A, N61A, F64L, K65Q, D66G, K67R, A68V, S84R, E89D
VL: B1 VL
notes: humanized
B11: Ab360 (antibody, V domains shown)
VH: B1 VH
VL: B1 VL with M11L, V15P, S43A
notes: humanized
B12: Ab372 (antibody, V domains shown)
VH: B1 VH
VL: B1 VL with E1D, P8Q, S43A
notes: humanized
B13: Ab383 (antibody, V domains shown)
VH: B1 VH with E1Q, K12A, R38K
VL: B1 VL
notes: humanized
B14: Ab373 (antibody, V domains shown)
VH: B1 VH with L20V, T30S
VL: B1 VL with E1D, P8Q, S43A
notes: humanized
B15: Ab386 (antibody, V domains shown)
VH: B1 VH with T30S, R38K, N61A, K65Q, D66G, K67R, A68V
VL: B1 VL
notes: humanized
B16: Ab377 (antibody, V domains shown)
VH: B1 VH with S16T, Y32S, W33A, H35Q, R38K
VL: B1 VL
notes: humanized
B17: Ab354 (antibody, V domains shown)
VH: B1 VH with S16T, P41R, G44R, N61A, K65Q, D66E, K67R, A68V
VL: B1 VL with M11L, V15P, S43A
notes: humanized
B18: Ab375 (antibody, V domains shown)
VH: B1 VH with E1Q, K12A, S16T, R38K, A68V
VL: B1 VL
notes: humanized
B19: Ab387 (antibody, V domains shown)
VH: B1 VH with E1Q, K12A, S16T, R38K, A68V
VL: B2 VL with Q8P
notes: humanized
B20: Ab390 (antibody, V domains shown)
VH: B1 VH with S16T, P41R, G44R, N61A, K65Q, D66E, K67R, A68V
VL: B2 VL with Q8P
notes: humanized
B21: Ab359 (antibody, V domains shown)
VH: B1 VH with E1Q, K12A, R38K
VL: B1 VL with M11L, V15P, S43A
notes: humanized
B22: Ab361 (antibody, V domains shown)
VH: B1 VH with L20V, T30S
VL: B1 VL with M11L, V15P, S43A
notes: humanized
B23: Ab371 (antibody, V domains shown)
VH: B1 VH with E1Q, K12A, R38K
VL: B1 VL with E1D, P8Q, S43A
notes: humanized
B24: Ab365 (antibody, V domains shown)
VH: B1 VH with S16T, Y32S, W33A, H35Q, R38K
VL: B1 VL with E1D, P8Q, S43A
notes: humanized
B25: Ab362 (antibody, V domains shown)
VH: B1 VH with T30S, R38K, N61A, K65Q, D66G, K67R, A68V
VL: B1 VL with M11L, V15P, S43A
notes: humanized
B26: Ab374 (antibody, V domains shown)
VH: B1 VH with T30S, R38K, N61A, K65Q, D66G, K67R, A68V
VL: B1 VL with E1D, P8Q, S43A
notes: humanized
B27: Ab367 (antibody, V domains shown)
VH: B1 VH with E1Q, K12A, S16A, R38K, S84R, E89D
VL: B1 VL with E1D, P8Q, S43A
notes: humanized
B28: Ab358 (antibody, V domains shown)
VH: B1 VH with S16A, N61A, F64L, K65Q, D66G, K67R, A68V, S84R, E89D
VL: B1 VL with M11L, V15P, S43A
notes: humanized
B29: Ab351 (antibody, V domains shown)
VH: B1 VH with E1Q, K12A, S16T, R38K, A68V
VL: B1 VL with M11L, V15P, S43A
notes: humanized
B30: Ab381 (antibody, V domains shown)
VH: B1 VH with K12A, S16A, S84R, E89D
VL: B1 VL
notes: humanized
B31: Ab378 (antibody, V domains shown)
VH: B1 VH with S16T, P41R, G44R, N61A, K65Q, D66E, K67R, A68V
VL: B1 VL
notes: humanized
B32: Ab353 (antibody, V domains shown)
VH: B1 VH with S16T, Y32S, W33A, H35Q, R38K
VL: B1 VL with M11L, V15P, S43A
notes: humanized
B33: Ab366 (antibody, V domains shown)
VH: B1 VH with S16T, P41R, G44R, N61A, K65Q, D66E, K67R, A68V
VL: B1 VL with E1D, P8Q, S43A
notes: humanized
B34: Ab379 (antibody, V domains shown)
VH: B1 VH with E1Q, K12A, S16A, R38K, S84R, E89D
VL: B1 VL
notes: humanized
B35: Ab388 (antibody, V domains shown)
VH: B1 VH with A9P, S16T, P41R, G44R, K67R
VL: B2 VL with Q8P
notes: humanized
B36: Ab363 (antibody, V domains shown)
VH: B1 VH with E1Q, K12A, S16T, R38K, A68V
VL: B1 VL with E1D, P8Q, S43A
notes: humanized
B37: Ab376 (antibody, V domains shown)
VH: B1 VH with A9P, S16T, P41R, G44R, K67R
VL: B1 VL
notes: humanized
B38: Ab385 (antibody, V domains shown)
VH: B1 VH with L20V, T30S
VL: B1 VL
notes: humanized
B39: Ab389 (antibody, V domains shown)
VH: B1 VH with S16T, Y32S, W33A, H35Q, R38K
VL: B2 VL with Q8P
notes: humanized
B40: Ab380 (antibody, V domains shown)
VH: B1 VH with S16A, S84R, E89D
VL: B1 VL
notes: humanized

Molecular target: T1, purified ALK protein (BLitz, Table 20) (Homo sapiens (Human), UniProt Q9UM73 19-1038, limits assumed)
T1 construct: also called purified ALK proteins
Assay: BLI (BLitz), mAb on Protein A tip, purified ALK in solution
Procedure: Kinetic measurements of the monovalent affinity of the 96 humanized ALK antibody variants (Ab351-Ab446) were collected. Affinity ranking was performed using a BLitz® System (ForteBio, Menlo Park, Calif.). Humanized anti-ALK antibodies were immobilized at 0.5 mg/mL using Protein A tips. Once baseline stability was ensured, purified ALK proteins at 70 μg/mL were added. The resulting kinetic data were fit to a single binding site equation, from which the quoted monovalent KD values were derived.

T1 sequence (Q9UM73 19-1038 limits assumed): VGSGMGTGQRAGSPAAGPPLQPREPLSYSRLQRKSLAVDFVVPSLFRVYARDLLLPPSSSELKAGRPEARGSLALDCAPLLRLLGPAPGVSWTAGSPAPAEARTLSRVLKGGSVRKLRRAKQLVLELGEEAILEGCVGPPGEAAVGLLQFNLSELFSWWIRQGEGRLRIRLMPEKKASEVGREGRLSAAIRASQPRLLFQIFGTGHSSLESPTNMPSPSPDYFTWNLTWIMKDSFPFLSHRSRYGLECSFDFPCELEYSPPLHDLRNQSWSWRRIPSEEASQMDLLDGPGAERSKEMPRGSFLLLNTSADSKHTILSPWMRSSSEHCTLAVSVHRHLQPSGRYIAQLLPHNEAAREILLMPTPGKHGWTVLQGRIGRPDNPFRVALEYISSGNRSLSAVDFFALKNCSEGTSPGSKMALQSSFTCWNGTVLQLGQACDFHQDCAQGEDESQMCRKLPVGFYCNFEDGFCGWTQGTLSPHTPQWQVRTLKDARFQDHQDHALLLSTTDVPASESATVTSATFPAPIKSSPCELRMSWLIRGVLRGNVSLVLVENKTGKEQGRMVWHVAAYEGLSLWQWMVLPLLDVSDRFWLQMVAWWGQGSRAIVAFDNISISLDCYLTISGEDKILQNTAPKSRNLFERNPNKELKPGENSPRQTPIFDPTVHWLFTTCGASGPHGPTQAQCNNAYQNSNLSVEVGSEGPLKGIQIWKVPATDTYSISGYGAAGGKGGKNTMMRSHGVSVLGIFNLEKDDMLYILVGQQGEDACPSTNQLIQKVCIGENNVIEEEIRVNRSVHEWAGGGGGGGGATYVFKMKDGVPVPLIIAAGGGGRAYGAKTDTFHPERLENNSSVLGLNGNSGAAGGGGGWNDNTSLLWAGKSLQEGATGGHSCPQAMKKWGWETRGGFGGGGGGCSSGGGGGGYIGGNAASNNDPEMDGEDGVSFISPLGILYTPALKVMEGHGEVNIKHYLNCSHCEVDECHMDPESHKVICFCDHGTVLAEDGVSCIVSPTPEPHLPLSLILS

Kd | Binder
0.201 µM | B1
0.233 µM | B2
0.198 µM | B3
0.128 µM | B4
0.128 µM | B5
0.147 µM | B6
0.175 µM | B7
2.53 µM | B8
0.21 µM | B9
0.141 µM | B10
0.137 µM | B11
0.188 µM | B12
0.132 µM | B13
0.28 µM | B14
0.257 µM | B15
0.927 µM | B16
0.133 µM | B17
0.14 µM | B18
0.158 µM | B19
0.288 µM | B20

Kd | Binder
0.1 µM | B21
0.153 µM | B22
0.13 µM | B23
1.49 µM | B24
0.149 µM | B25
0.253 µM | B26
0.114 µM | B27
0.118 µM | B28
0.12 µM | B29
0.18 µM | B30
0.167 µM | B31
0.384 µM | B32
0.219 µM | B33
0.118 µM | B34
0.108 µM | B35
0.119 µM | B36
0.103 µM | B37
0.626 µM | B38
1.55 µM | B39
0.141 µM | B40
